One may read the Km as the substrate concentration at which the rate is half of its maximum. As usually defined, the stoichiometry N is a count of units in the complex or per binding partner.

The text below walks through data of paper PMC7407080, “Methylglyoxal Detoxification Revisited: Role of Glutathione Transferase in Model Cyanobacterium Synechocystis sp. Strain PCC 6803” (mBio, 2020).

Series [1] has as its target T1, Sll0067 GST (Synechocystis sp. PCC 6803, UniProt Q55139).
T1 sequence (Q55139 1-184): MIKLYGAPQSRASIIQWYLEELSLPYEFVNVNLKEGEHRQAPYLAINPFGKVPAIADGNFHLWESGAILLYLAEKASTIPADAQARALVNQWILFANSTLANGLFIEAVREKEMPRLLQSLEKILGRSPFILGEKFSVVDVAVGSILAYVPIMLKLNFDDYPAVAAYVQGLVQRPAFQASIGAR
The series is described as follows: absorbance at […] nm, GSH conjugation, Michaelis-Menten fit. It counts as biochemical. Particulars: 1 mM GSH; 30 mM Tris-HCl pH 8.0, 1 mM EDTA; 25°C; read-out: affinity (apparent Km).

In series [2] the target is T1, Sll0067 GST. The series is described as follows: initial velocity of GSH-MG conjugation with added S-lactoylGSH. The class given is biochemical. As to conditions: activator; co-substrates GSH and MG.
For series [3], the target named is Sll0067 glutathione transferase (GST) of Synechocystis sp. strain PCC 6803, His-tagged recombinant protein (Synechocystis sp. strain PCC 6803). The series can be described thus: SEC-MALS; 300 ug of purified protein in 300 ul injected at 0.5 ml/min on an analytical Superdex 200 10/300 column, 30 mM Tris-HCl pH 8.0, 200 mM NaCl; miniDAWN TREOS detector and T-rEX refractometer. For orientation: SEC sorts molecules by how far they enter the pores of the column.

Substrate in series [4]: S=C=NCCc1ccccc1
The series is described as follows: purified protein. It counts as biochemical, Synechocystis sp. PCC 6803. Particulars: 1 mM GSH, 100 mM phosphate pH 6.5, 25°C.

Substrate in series [5]: S=C=NCc1ccccc1
The series is described as follows: purified protein. The class given is biochemical, Synechocystis sp. PCC 6803. As to conditions: 1 mM GSH, 100 mM phosphate pH 6.5, 25°C.

Substrate in series [6]: CC(=O)C=O
The series is described as follows: two-substrate steady-state kinetics, remaining MG by DDP fluorescence; secondary plot, allosteric sigmoidal fit. It counts as biochemical, Synechocystis sp. PCC 6803. Particulars: varied GSH, 100 mM potassium phosphate, 1 mM EDTA, pH 7.5, 30°C, Hill number 1.873 ± 0.261. The text has this: two-substrate steady-state kinetics, remaining MG by DDP fluorescence; secondary plot, allosteric sigmoidal fit on Sll0067 GST

For `O=[N+]([O-])c1ccc(Cl)c([N+](=O)[O-])c1` [1-chloro-2,4-dinitrobenzene], the Km on Sll0067 GST [1] stood at 3800 µM.
With `C[C@@H](O)C(=O)SC[C@H](NC(=O)CC[C@H](N)C(=O)O)C(=O)NCC(=O)O` [S-D-lactoylglutathione], the “initial velocity of GSH-MG conjugation with added S-lactoylGSH” value at Sll0067 GST [2] is reported as “All measured initial velocities of Sll0067 activity were increased by S-lactoylGSH”.
For the molecule “Sll0067 glutathione transferase (GST) of Synechocystis sp. strain PCC 6803, His-tagged recombinant protein (enzyme)”, in series [3], the stoichiometry N worked out at 2.

B1: Sll0067 GST (Synechocystis sp. PCC 6803 substr. Kazusa) (protein)
chain: T1 sequence (Q55139 1-184)
Take B1: the Km amounted to 31.4 µM in “purified protein [4]” and 82.0 µM in “purified protein [5]”. For the same molecule, in series [6], the K0.5 stood at 221.7 ± 26.3 µM.
